Patent US20050192211A1 (Merck KGaA, published 2005)

Target: T1, EPO receptor (UniProt P19235 25-508, limits assumed)
T1 sequence (looked up): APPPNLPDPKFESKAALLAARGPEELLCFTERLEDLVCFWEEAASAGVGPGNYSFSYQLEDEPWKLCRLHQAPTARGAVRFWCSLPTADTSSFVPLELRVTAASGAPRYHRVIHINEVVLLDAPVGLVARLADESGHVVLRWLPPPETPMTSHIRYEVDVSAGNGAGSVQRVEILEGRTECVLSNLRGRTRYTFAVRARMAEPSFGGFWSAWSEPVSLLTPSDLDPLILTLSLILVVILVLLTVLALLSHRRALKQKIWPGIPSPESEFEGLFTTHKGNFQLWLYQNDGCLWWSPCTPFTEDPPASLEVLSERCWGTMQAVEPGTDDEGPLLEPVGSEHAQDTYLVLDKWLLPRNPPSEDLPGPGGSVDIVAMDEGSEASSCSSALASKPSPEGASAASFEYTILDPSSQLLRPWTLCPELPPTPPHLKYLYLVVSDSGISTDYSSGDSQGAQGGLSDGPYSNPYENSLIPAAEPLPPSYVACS
Experiment: cell-based or functional assay

For EPO (Aranesp®) (ligand), the ED50, TF-1 cell proliferation (3H-thymidine incorporation); S.D. 0.96; N 10 was 2.4 ng/mL.
